In publication PMC7341804:

Molecular target: Arabinosyltransferase B (EmbB) from Mycobacterium smegmatis (Mycobacterium smegmatis) (UniProt Q50395)
Assay: native MS; EmbB in 0.2 M ammonium acetate pH 6.8 with 0.01% C12E8 detergent; Q-Exactive HF Orbitrap UHMR, HCD 150 V, capillary 300 °C

Arabinosyltransferase B (EmbB) from Mycobacterium smegmatis (from UniProt Q50395 1-1082) (enzyme)
stoichiometry N: 2
